Reference: patent US12624118B2, “Trispecific binding molecules against BCMA and uses thereof” (Novartis AG, priority 2019, dated 2026)
Changes are numbered by the printed parent chain.

T1: recombinant human CD2 (Homo sapiens, UniProt P06729)
T1 construct: transiently produced and purified from HEK293 cells along with the CD2 extracellular domain; made in house; host or cells: HEK293 / HEK293F cells (transient expression)
T1 sequence (P06729 with tags, fused parts or gaps): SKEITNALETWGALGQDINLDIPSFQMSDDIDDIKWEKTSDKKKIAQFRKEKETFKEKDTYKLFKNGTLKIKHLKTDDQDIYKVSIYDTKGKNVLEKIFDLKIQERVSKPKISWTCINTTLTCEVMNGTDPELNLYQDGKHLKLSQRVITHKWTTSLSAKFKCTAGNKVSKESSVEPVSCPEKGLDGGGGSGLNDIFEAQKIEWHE

B1: CD58 Full ECD: recombinant human CD58 full extracellular domain with C-terminal 8×his tag (protein)
chain: SQQIYGVVYGNVTFHVPSNVPLKEVLWKKQKDKVAELENSEFRAFSSFKNRVYLDTVSGSLTIYNLTSSDEDEYEMESPNITDTMKFFLYVLESLPSPTLTCALTNGSIEVQCMIPEHYNSHRGLIMYSWDCPMEQCKRNSTSIYFKMENDLPQKIQCTLSNPLFNTTSSIILTTCIPSSGHSRHRGGGGSHHHHHHHH
modifications: C-terminal 8xHis tag
notes: recombinant human CD58 full extracellular domain with C-terminal 8×his tag
B2: IgV V54C_G88C: CD58 domain 1 with V54 and G88 replaced by cysteines to form a disulfide bridge (protein)
chain: SQQIYGVVYGNVTFHVPSNVPLKECLWKKQKDKVAELENSEFRAFSSFKNRVYLDTVSCSLTIYNLTSSDEDEYEMESPNITDTMKFFLYVLESGGGGSHHHHHHHH
B3: CD58_IgV: IgV domain (domain 1) of human CD58, without stabilizing disulfide (protein)
chain: B2 chain with C25V, C59G
B4: IgV V45C_M105C: CD58 domain 1 with V45 and M105 replaced by cysteines to form a disulfide bridge (protein)
chain: B2 chain with V16C, C25V, C59G, M76C
B5: IgV V45C_M114C: CD58 domain 1 with V45 and M114 replaced by cysteines to form a disulfide bridge (protein)
chain: B2 chain with V16C, C25V, C59G, M85C
B6: AB3: anti-BCMA binder, AB3 Family, derived from parental PI-61 (antibody, V domains shown)
VH: QVQLVESGGGVVQPGRSLRLSCAASGFTVSSYGMHWVRQAPGKGLEWVAVISYTGSNKYYADSVKGRFTISRDNSKNTLYLQMNSLRAEDTAVYYCGGSGYALHDDYYGLDVWGQGTLVTVSS
VL: QSALTQPASVSGSPGQSITISCTGTSSDVGGYNYVSWYQQHPGKAPKLMIYDVSNRLRGVSNRFSGSKSGNTASLTISGLQAEDEADYYCSSYTSSSALYVFGSGTKVTVL

test system: not listed separately; assay: Thermal stability by differential scanning fluorimetry (DSF); format: physicochemical; conditions: Sypro Orange; 25° C. to 95° C. at 0.5° C./minute
Procedure: Disulfide stabilized variants were assessed for improved thermal stability using both differential scanning calorimetry (DSC) and differential scanning fluorimetry (DSF) using standard techniques. For DSF, 1-3 ug of each construct was add to 1× Sypro Orange (Thermo-Fisher) in 25 ul total volume in 96-well PCR plate. Using a Bio-Rad CFX96 RT-PCR system equipped with C1000 Thermal Cycler, the temperature was increased from 25° C. to 95° C. at 0.5° C./minute and the fluorescence monitored. The manufacturer-supplied software was used to determine Tm.

Point of comparison: B1, “Tm (° C.) By Differential Scanning Fluorimetry (DSF)” value 59.5 °C. Against it:
- B2 — higher, 76.5 °C
- B3 — lower, 48.5 °C
- B4 — lower, 48.5 °C
- B5 — higher, 63.5 °C

test system: not listed separately; assay: Thermal stability by differential scanning calorimetry (DSC); format: physicochemical; conditions: HBS, 0.5 mg/mL; 25° C. to 100° C. at 1° C./minute
Procedure: For DSC, all samples were dialyzed into HEPES-buffered saline (HBS) and diluted to final concentration of 0.5 mg/mL. Tm and Tonset were determined using a MicroCal VP-Capillary DSC system (Malvern) by increasing temperature from 25° C. to 100° C. at 1° C./minute with a filtering period of 2 seconds and a mid-gain setting.

Point of comparison: B2, “Tm (° C.) By Differential Scanning Calorimetry (DSC)” value 80.9 °C. Against it:
- B1 — lower, 65.0 °C
- B3 — lower, 60.9 °C
- B4 — lower, 66.8 °C
- B5 — lower, 72.5 °C

Point of comparison: B4, “Tmonset (° C.) By Differential Scanning Calorimetry (DSC)” value 43.9 °C. Against it:
- B1 — higher, 48.8 °C
- B2 — higher, 66.7 °C
- B3 — higher, 46.3 °C
- B5 — higher, 49.6 °C

target: T1, recombinant human CD2; assay: Isothermal calorimetry (ITC) binding affinity of CD58 variants; conditions: recombinant human CD2 (100 μM) titrated into 10 μM CD58 variant in HBS, apparent KD
Procedure: To ensure the binding affinity remained uncompromised by the additional of the stabilizing disulfide variance, isothermal calorimetry (ITC) was performed on the resulting recombinant CD58 proteins to determine their apparent KD and binding stoicheometry (n) to recombinant human CD2.
Briefly, recombinant human CD2 and recombinant human CD58 variants were dialyzed into HEPES-buffered saline (HBS). CD2 was diluted to final concentration of 100 μM, CD58 variants were diluted to 10 μM. CD2 was titrated into 10 μM of CD58 variants via multiple injections and ΔH (kcal/mole) determined using a MicroCal VP-ITC isothermal titration calorimeter (Malvern). Titrations of CD2 into HBS were used as a reference and KD and n determined from the resulting data.

B1 showed a Kd of 570 nM.

test system: BCMA+ multiple myeloma cell lines; assay: In vitro RTCC assays of anti-BCMA x anti-CD3 bispecific antibodies; format: cell-based; conditions: tested as anti-BCMA x anti-CD3 bispecific antibodies having VH and VL sequences of the binder
Text: (§1) Anti-BCMA x anti-CD3 bispecific antibodies having VH and VL sequences of AB1, AB2, and AB3 were produced.

With B6 the “activity in in vitro RTCC assays” value was “active”.

test system: KMS11-Luc multiple myeloma orthotopic tumor; assay: KMS11-Luc multiple myeloma orthotopic tumor model; format: in vivo; conditions: tested as anti-BCMA x anti-CD3 bispecific antibodies having VH and VL sequences of the binder; NSG mice
Text: as §1

For B6, the anti-tumor activity was “anti-tumor activity”.
